Test [1] addresses T1, Type II IFN (IFN γ) receptor (human) (UniProt P15260).
T1 sequence (looked up) 1: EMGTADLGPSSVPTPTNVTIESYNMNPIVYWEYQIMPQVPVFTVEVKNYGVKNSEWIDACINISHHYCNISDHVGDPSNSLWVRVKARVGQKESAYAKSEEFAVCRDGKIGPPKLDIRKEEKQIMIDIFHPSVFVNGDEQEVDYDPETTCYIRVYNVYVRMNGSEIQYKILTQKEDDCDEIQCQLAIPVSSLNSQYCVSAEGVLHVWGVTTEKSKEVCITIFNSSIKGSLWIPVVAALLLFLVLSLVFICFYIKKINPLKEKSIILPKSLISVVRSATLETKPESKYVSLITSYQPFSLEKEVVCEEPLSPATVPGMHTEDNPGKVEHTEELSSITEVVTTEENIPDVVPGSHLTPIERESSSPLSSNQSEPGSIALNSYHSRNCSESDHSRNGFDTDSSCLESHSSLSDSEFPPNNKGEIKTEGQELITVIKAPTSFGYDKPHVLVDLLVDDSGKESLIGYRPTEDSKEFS
T1 sequence (looked up) 2: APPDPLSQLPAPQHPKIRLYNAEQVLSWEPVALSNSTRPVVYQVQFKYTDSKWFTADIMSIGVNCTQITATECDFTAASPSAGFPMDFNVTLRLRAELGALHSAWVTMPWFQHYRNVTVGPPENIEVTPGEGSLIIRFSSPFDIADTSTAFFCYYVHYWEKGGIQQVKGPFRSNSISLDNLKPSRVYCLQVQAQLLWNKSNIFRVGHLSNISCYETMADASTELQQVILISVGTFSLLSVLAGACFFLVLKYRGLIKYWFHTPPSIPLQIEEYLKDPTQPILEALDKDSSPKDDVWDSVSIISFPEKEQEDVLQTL
Put plainly: cell-based or functional assay.

Test [2] deals with Type I IFN receptor (human) (UniProt P17181). Briefly: cell-based or functional assay.
Sequence of UniProt P17181 (P17181 28-557, chain 1 of 2): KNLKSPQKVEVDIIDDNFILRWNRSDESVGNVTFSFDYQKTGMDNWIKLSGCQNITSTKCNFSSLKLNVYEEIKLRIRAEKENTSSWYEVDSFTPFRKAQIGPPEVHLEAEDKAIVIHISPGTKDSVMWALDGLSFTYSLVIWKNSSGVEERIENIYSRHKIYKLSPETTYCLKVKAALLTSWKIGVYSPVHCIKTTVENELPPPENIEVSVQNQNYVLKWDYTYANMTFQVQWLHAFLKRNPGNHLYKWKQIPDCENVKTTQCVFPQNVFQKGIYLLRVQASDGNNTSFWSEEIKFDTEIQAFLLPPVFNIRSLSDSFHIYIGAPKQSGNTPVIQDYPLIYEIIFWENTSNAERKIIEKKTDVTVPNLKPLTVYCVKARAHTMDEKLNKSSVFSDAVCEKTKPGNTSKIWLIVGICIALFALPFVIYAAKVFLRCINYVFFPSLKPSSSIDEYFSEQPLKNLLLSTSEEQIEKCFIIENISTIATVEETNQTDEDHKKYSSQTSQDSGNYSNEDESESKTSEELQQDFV
Sequence of UniProt P17181 (P48551 27-515, chain 2 of 2, further chain): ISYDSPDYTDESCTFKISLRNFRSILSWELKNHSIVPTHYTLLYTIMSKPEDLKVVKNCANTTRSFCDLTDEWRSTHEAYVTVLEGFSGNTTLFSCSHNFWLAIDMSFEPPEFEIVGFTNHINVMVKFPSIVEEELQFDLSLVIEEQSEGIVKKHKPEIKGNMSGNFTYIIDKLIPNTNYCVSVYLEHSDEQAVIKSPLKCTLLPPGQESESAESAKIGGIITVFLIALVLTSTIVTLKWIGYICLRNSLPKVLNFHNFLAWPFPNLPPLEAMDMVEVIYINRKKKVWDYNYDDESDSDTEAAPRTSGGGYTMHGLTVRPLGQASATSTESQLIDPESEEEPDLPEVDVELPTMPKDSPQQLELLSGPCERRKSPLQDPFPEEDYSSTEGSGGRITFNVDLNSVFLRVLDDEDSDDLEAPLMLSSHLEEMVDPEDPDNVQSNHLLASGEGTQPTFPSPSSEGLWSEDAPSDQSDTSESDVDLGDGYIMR

Consider “human interferon gamma (IFNγ) (from UniProt P01579 24-166) (ligand)”, for which, in test [1], the RLU (Relative Luciferase Units): Fold Increase, GAS-Luc reporter in U266R cells Clone 2 (UIG2), IFNγ 1.0 IU/ml worked out at 1.5 fold; the RLU (Relative Luciferase Units): Fold Increase, GAS-Luc reporter in U266R cells Clone 2 (UIG2), IFNγ 100 0 IU/ml (so in the source) turned out to be 9 fold; the RLU (Relative Luciferase Units): Fold Increase, GAS-Luc reporter in U937 cells, IFNγ 10.0 IU/ml turned out to be 1.25 fold; the RLU (Relative Luciferase Units): Fold Increase, GAS-Luc reporter in U937 cells, IFNγ 100 0 IU/ml (so in the source) was 1.5 fold. Moreover, in test [1], the fold increase in RLU, IRF-Luc reporter in U937 cells Clone #2 (IRF-Luc2), IFNγ is 1.1 fold.
As to human IFNα (ligand), in test [2], the RLU (Relative Luciferase Units): Fold Increase, GAS-Luc reporter in U937 cells, IFNα 1.0 IU/ml was determined as 1.5 fold and the RLU (Relative Luciferase Units): Fold Increase, GAS-Luc reporter in U937 cells, IFNα 100.0 IU/ml is 3 fold.

The values above are taken from patent US20080138818A1.
